The values that follow are results of earlier work, collected in article PMC3384300.

The subject of this series is MS2 coat protein (bacteriophage MS2?).

Take natural MS2 coat protein aptamer: the Kd was 0.02 nM.

A word on the Kd: it is the concentration at which binding is half-saturated.
